Laboratory results from the nanobody polyreactivity screen of Harvey et al. (2022).

Experiment: yeast display, Sf9 membrane polyspecificity reagent, FACS + sequencing; frameworks hold sequencing errors
Outline: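 A synthetic nanobody library was expressed on Saccharomyces cerevisiae BJ5465 by galactose induction for 36–48 hours. The library was stained for 1 hour at 4 °C with 10% biotinylated, detergent-solubilized Sf9 membrane reagent and enriched with streptavidin microbeads before FACS. Low and high (top ~1%) gates were set on anti-HA fluorescence for expression and streptavidin fluorescence for reagent binding, and each polyreactivity label reflects the gate of origin.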
With “QVQLVDSVGGLVQAGGSLRLSCAASGFTFGVNVMGWYRQEPGKEREFVAAITWSGDSTYYADSVKGRFTISRDNAKNTVYLQMNSLKPEDSAVYYCAADGNTWPADFLSYYFEFDEYWGQGTQVTVSS” the “polyreactivity (PSR sort gate)” value was “low polyreactivity”. In the case of “QVQLVDSVGGLVQAGGSLRLSCAASGRIFRYYAMGWYRQAPRKERELVAAITWSGGSTYYADSVKGRFTISRDNAKNTVYLQMNSLKPEDTAVYYCNADSVYAGFDYWGQGTQVTVSS”, the “polyreactivity (PSR sort gate)” value is reported as “low polyreactivity”. In the case of “QVQLVDTGGGLVQAGGSLRLSCAASGSTFYFNAMGWYRLAPGKERELVAAISYSGGSTYYADSVKGRFTISRDNAKNTVYFQMNSLKPEDTAVYYCNARGLKSYYPGYWFRGDDWGQGTQVTVSS”, the “polyreactivity (PSR sort gate)” value is reported as “high polyreactivity”. For “QVQLVEAGAGLVQAGGSLRLSCAASGGIFGQYTRGWSRHAPGKERELVAGISTSGGSTYYADSVKGRFTISRDYAKNTVYLQMNSLKPGDTAVYYCAAGSYRKRVTNYSYRTPYGYWGHGTQVTVSS”, the “polyreactivity (PSR sort gate)” value was “high polyreactivity”. In the case of “QVQLVEAGGGFVQAGGSLRLSCAASGFTFDYYAMGSYRQAHGKERELVAAITLNGGSTYYADSVKGRFTISRDNAKNTVYLQMNSLKPEDPAVYYCAADGSGYYDWYYYWGHGTQVTVSS”, the “polyreactivity (PSR sort gate)” value is reported as “low polyreactivity”. With “QVQLVEAGGGLVQAGGSLRLSCAASGFIFYGYMGWYIQAHGKERELVAAISYTGGSTYYADSVKGRFTISRDNAKNTVYLQMISLKPEDTAVYYCARDWRTKWFGYWGQGTQVTVSS” the “polyreactivity (PSR sort gate)” value was “low polyreactivity”. In the case of “QVQLVEAGGGLVQAGGSLRLSCAASGIIFGFYAMGWYRQAPGKERELVAAITNDGGNTNYADSVKGRFTISRDNAKNTVYLQMNSLKPEDTAVYYCNADRTQDRTPYTYATFDYWGQGTQVTVSS”, the “polyreactivity (PSR sort gate)” value is reported as “low polyreactivity”. With “QVQLVEAGGGLVQAGGSLRLSCAASGPIFPLYAKGWYRQAPGKERELVAAISSGGTTYYADSVKGRFTISRDNAKNTVYLQMNSLKQEDTAVYYCARRPAQRLGRFDYWGQGTQVTVSS” the “polyreactivity (PSR sort gate)” value was “low polyreactivity”. For “QVQLVEAGGGLVQAGGSLRLSCAASGRTFSFNAMGCYRQAPGKERELVAAISRRGTSTYYADSVKGRFTISRDNAKNSVYLQMNSLKPEYTAVYYCAARSTYTRREYDYWGQGTQVTVSS”, the “polyreactivity (PSR sort gate)” value was “high polyreactivity”. In the case of “QVQLVEAGGGLVQAGGSLRLSCAASGSTFKRYAMGWYRQAPGKERELVASISSGGSTNYADSVKGRFTISRDNAKNTVYLQMNSLKPEDTAVDYCAVSYRSFRYYWERYYSWGQGTQVTVSS”, the “polyreactivity (PSR sort gate)” value is reported as “high polyreactivity”. For “QVQLVEAGGGLVQAGGSLRLSCAASGSTLVYNDMGWYRQAPGKEREFVAAIRSNDGSTYYADSVKGRFTISRDNAKNTVYLQMNSLKPEDTAVYFCNKDVWDGYDWPEFDYWGQGTQVTVSS”, the “polyreactivity (PSR sort gate)” value was “low polyreactivity”. For “QVQLVEAGGGLVQAGGSLRLSCASSGSIITVYDMGWYRQPPGKERELVATITGSDGRTDYADSVKGRFTISRDNAKNTVYLQMNSLKPEDTAVYYCAAHVFQWKNRQSLLFDQGYYWGQGTQVTVSS”, the “polyreactivity (PSR sort gate)” value was “low polyreactivity”. For “QVQLVEAGGGLVQAGGSLRLSGAASGRTFSLYAMGWYRQAPGKERELVAAITVSGGSTYYADSVKGRFTISRDNAKNTVYLQMNSLKPEDTAVYYCAAEGQPFRYYLLDYWGQGTQVTVSS”, the “polyreactivity (PSR sort gate)” value was “low polyreactivity”. In the case of “QVQLVEAGGGLVQAGGSLRLTCAASGSIISRYAMGWYRQAPGKEREFVAAISSSGGSTYYADSVKGRFTISRDNAKNTVDVQMNSLKPEDTAVYYCARYAYKVPIMGYWGQGTQVTVSS”, the “polyreactivity (PSR sort gate)” value is reported as “high polyreactivity”. In the case of “QVQLVELGGGLVQAGGSLRLSCAASGRIFTHNAMGWYRQAPGKDRELVAAISYSGVSTYYADSVKGRFTISRDNAKNTVYLQMNSLKPEDTAVYYCARRYWYPDAFYRYDYWGQGTQVTVSS”, the “polyreactivity (PSR sort gate)” value is reported as “low polyreactivity”. For “QVQLVEPGGGLVQAGGSLRLSCAASGRTFYRYAMGWYRQAPGKERELVAAITWSGGRTYYADSVKGRFTMSRDYAKNTVYLQMNSLKPEDTAVYYCAADNSYRGYHSPYDYWGQGTQVTVSS”, the “polyreactivity (PSR sort gate)” value was “low polyreactivity”. With “QVQLVERGGGLVQAGGSHRLSCAASGRIFPGYAKGWYRQAPGKELELVAAISRIGGDTYYADSVKGRFTISRDNAKNTVYLQMNSLKPEDTPVYYCAARYGRHRVSWYATWRYGYWGQGTQVTVSS” the “polyreactivity (PSR sort gate)” value was “low polyreactivity”. With “QVQLVESAAGLVLAGGSLRLSCAASGSIFRFYAMGWSRQAPGQERELVAGITLSGASTYYADSVKGRFTISRDNAKNTVYLQMNSLKPEDTAVYYCAKRYRLDGFYYWGQGTQVTVSS” the “polyreactivity (PSR sort gate)” value was “high polyreactivity”. With “QVQLVESAAGLVQAGGSLRLSCAASGGIFWVYAMGWYRQAPGKERELVAAISNSDTSTSDADSVKGRFTISRDTAKNTVYLQMYSLKPEDTAVYNCNGDSPSLSGDIWGQGTQVTVTS” the “polyreactivity (PSR sort gate)” value was “low polyreactivity”. In the case of “QVQLVESAAGLVQAGGSLRLSCAASGIIFSKYAMGWYRQAPGKERELVAASSSSGGSTYYADSVKGRFTISRDNAKNTVYLQMNSLKPEDTAVYYCAKGGGPNSRGYWGQGTQVTVSS”, the “polyreactivity (PSR sort gate)” value is reported as “high polyreactivity”. For “QVQLVESAAGLVQAGGSLRLSCAASGLILDEYAMGWYRQAPGKEMELVAAISWSGGSTYYADSVKGRFTISRDNAKNTVYLQMNSLKPEDTAVYYCAADRVWFSDNSYYYWGQGTQVTVSS”, the “polyreactivity (PSR sort gate)” value was “high polyreactivity”. In the case of “QVQLVESAAGLVQAGGSLRLSCAASGRIFGYYTMGWYRQAPGKERELVAAINGRGTSTYYADSVKGRFTISRDNAKYTVYLQMNSLKPEDTAVYYCAAQLYYYGQYKHFDYWGQGTQVTVSS”, the “polyreactivity (PSR sort gate)” value is reported as “high polyreactivity”. In the case of “QVQLVESAAGLVQAGVSLRLSCAASGFTLFYYAMGWYRQEPGKERELVAGISRRGGSTYYADSVKGRFTISRDNEKNTVYLQMNSLKPEDTAVYYCAAGLCGYKSDTRGDYWGQGTQVTVSS”, the “polyreactivity (PSR sort gate)” value is reported as “low polyreactivity”. For “QVQLVESAGGIVQAGGSLRLSCAASGITFPGNAMGWYRPAPGKERELVAAIDCYGGSTYYADTVKGRFTISRDNAKNTVYLQLNSLKPEDTAVYYCATDEYFSYYGYFLDAYWGQGTQVTLSS”, the “polyreactivity (PSR sort gate)” value was “low polyreactivity”. With “QVQLVESAGGIVQEGGSLRLSCAASGGTFTNYALGWYRQAPGKERELVAAITDSGAHTYYADSVKGRFTISRDNAKNKVYLQMYCLKPEDTAVYYCNAELDLYTDFDYWGQVTQVTVSS” the “polyreactivity (PSR sort gate)” value was “low polyreactivity”. In the case of “QVQLVESAGGLVKEGGSLRLSCAASGRTFGVNAMGRYRQAPGKERELVAAITWSGDSTYYADSVKGRFTISRDNAKNTVYLQMNSLKPEDTAVYYCAKKSSLFKHVVRYAYWGQGNQVTVSS”, the “polyreactivity (PSR sort gate)” value is reported as “low polyreactivity”. In the case of “QVQLVESAGGLVQAGASLRLSCAPSGSIFRINAMGWYRQAPGKERELVAAISTRSGRTYYADSVKGRFTISRDNAKNTVYLQMYSLNPEDTAVYYCARYRTQASGYGGYDYWGQGTQATVSS”, the “polyreactivity (PSR sort gate)” value is reported as “high polyreactivity”. For “QVQLVESAGGLVQAGCSLRLSCAASGSPFGYYAMGWYRQAPGKVRELVAAISRSGVSTYYADSVKGRFTISRDNAKNTFYLQMNSLKPEDTAVYYCDRVRSTPGSYNRFYYWGQGTQVTVSS”, the “polyreactivity (PSR sort gate)” value was “high polyreactivity”. In the case of “QVQLVESAGGLVQAGGSIRLSCAASGNIFFVYDMGWYRQAPGKERELVAAISWSGGSTYADSVKGRFTISRDNAKNTVYLQMNSLKPEDTAVYYWAASYGVYWYSFWYHVAWLDYWGQGTQVTVSS”, the “polyreactivity (PSR sort gate)” value is reported as “low polyreactivity”. In the case of “QVQLVESAGGLVQAGGSLPLSCAASGRTFQTNLMGWYRQAPGKERELVAAITLSGGSTNYADSVKVRFTISRDNAKKTVYLQMNSLKPEDTAVYYCNAERRYRHQLTPHYEYDYWGKGTQVTVSS”, the “polyreactivity (PSR sort gate)” value is reported as “low polyreactivity”. With “QVQLVESAGGLVQAGGSLRLSCAASGFIFPTYAMGWYRQAPGKERELVAAITTGGGSTYYADSVKGRFTISRDNAKNTVYLQMNSLKPEDTAVYYCAAEYVAQAGYGEDYWGQGTQVTVSS” the “polyreactivity (PSR sort gate)” value was “low polyreactivity”.
